In US20180275124A1 (DEUTSCHES KREBSFORSCHUNGSZENTRUM STIFTUNG DES FFENTLICHEN …, published 2018):

How the values were obtained:
Assay in all cases: surface plasmon resonance, Dectin-1 immobilized
[1] = target: T1, recombinant murine annexin A1 (murine, UniProt P10107 1-346)
T1 construct: Expressed in E. coli from pET41a with C-terminal FLAG tag, PreScission site and Protein A tag; the Protein A tag is cleaved off; also called mAnx1; mAnxA1; not shown: C-terminal FLAG tag and what remains of the PreScission site after cleavage
T1 sequence (looked up): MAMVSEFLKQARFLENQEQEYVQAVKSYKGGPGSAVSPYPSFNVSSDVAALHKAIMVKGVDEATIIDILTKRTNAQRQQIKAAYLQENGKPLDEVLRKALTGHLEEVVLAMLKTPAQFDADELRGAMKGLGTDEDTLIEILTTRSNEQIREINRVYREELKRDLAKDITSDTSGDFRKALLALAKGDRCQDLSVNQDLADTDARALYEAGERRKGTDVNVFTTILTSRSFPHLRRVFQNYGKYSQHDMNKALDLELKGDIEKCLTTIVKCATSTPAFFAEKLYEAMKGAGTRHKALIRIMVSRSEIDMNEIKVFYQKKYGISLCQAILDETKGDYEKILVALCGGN

[2] = target: T2, recombinant murine annexin A5 (murine, UniProt P48036 1-319)
T2 construct: Recombinant protein; also called mAnxA5; AnxA5
T2 sequence (looked up): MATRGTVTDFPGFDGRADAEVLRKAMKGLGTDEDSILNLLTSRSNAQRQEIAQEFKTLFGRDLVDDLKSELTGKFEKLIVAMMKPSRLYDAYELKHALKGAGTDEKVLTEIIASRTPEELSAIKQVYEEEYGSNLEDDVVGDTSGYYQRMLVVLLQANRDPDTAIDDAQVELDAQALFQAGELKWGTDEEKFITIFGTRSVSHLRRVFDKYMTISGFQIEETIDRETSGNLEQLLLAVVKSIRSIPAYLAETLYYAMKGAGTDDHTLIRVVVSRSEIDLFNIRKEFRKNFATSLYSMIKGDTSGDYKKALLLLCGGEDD

[3] = target: T3, recombinant murine annexin A13 (murine, UniProt Q99JG3 1-317)
T3 construct: Recombinant protein; also called mAnxA13; AnxA13
T3 sequence (looked up): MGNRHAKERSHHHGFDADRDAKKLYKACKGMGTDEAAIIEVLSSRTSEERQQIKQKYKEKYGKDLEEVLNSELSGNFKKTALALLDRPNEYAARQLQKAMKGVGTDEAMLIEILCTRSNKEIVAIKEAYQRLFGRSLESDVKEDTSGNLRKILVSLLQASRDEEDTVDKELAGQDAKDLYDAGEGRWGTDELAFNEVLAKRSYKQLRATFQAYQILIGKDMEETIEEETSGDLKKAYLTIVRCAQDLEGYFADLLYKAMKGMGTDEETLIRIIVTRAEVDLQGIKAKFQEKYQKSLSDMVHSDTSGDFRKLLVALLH

[4] = target: T4, murine annexin A1 core domain (murine, UniProt P10107 41-346, limits assumed)
T4 construct: domain: core domain; also called mAnxA1 core; AnxA1 core domain
T4 sequence (looked up): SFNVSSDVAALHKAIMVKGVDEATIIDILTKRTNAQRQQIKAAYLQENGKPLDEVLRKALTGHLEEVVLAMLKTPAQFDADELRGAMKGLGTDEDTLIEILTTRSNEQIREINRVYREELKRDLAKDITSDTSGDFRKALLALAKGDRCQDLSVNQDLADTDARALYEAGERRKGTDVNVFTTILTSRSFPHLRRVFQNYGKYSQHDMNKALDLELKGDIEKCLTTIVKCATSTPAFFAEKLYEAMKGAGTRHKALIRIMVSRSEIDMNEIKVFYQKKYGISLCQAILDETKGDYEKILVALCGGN

Kd [1]: ~100 nM
Kd [2]: ~100 nM
Kd [3]: ~100 nM
Kd [4]: ~100 nM
B1: Dectin-1 (receptor)
chain: GHNSGRNPEEKDNFLSRNKENHKPTESSLDEKVAPSKASQTTGGFSQPCLPNWIMHGKSCYLFSFSGNSWYGSKRHCSQLGAHLLKIDNSKEFEFIESQTSSHRINAFWIGLSRNQSEGPWFWEDGSAFFPNSFQVRNTAPQESLLHNCVWIHGSEVYNQICNTSSYSICEKEL
